Reference: patent US20180094062A1 (Hoffmann-La Roche, published 2018)

What was measured:
SBP-tagged HER3-ECD = molecular target: T1, SBP-tagged HER3-ECD (human, UniProt P21860 20-643); assay: time-resolved fluorescence, 10 nM Eu-labelled Heregulin-beta on plate-bound SBP-tagged HER3-ECD
T1 construct: not shown: SBP tag
Method: On the next day the wells were washed three times with washing buffer (PBS+0.05% Tween-20) and blocked with PBS containing 1% BSA for one hour. After another three washes with washing buffer, 40 μl antibody solution (in Delfia Binding Buffer) was added to each well as a 2× stock of the desired final concentrations (10⁻³ to 10³ nM, alternatively 10⁻⁴ to 10² nM). Immediately […] of 20 nM Europium-labeled Heregulin-beta (PeproTech, Cat. #100-03) was added to achieve a final concentration of 10 nM. The plates were incubated on a shaker at room temperature for two hours. Following three washes with Delfia Wash Buffer, Delfia Enhancement Solution was added and incubated on a shaker for 15 minutes (light protected). Finally, the plates were measured in a Tecan Infinite F200 reader using a time-resolved fluorescence measurement protocol.

[1] = molecular target: T2, HER3 ECD-HRG complex (Heregulin-activated Her-3 ECD) (human, UniProt P21860 20-643); assay: SPR, 90 nM Heregulin*Her-3 ECD complex on captured antibody
T2 construct: receptor-ligand complex made by preincubating HER3 ECD with a five-fold molar excess of Heregulin; also called Heregulin/Her-3 ECD; Heregulin-complexed Her-3 ECD

[2] = molecular target: T3, HER2 ECD peptide hairpin, overlapping immobilized 15-mer peptides (human, UniProt P04626 269-287, limits assumed); assay: CelluSpots array of overlapping 15-mer peptides
T3 construct: domain: peptide hairpin (β-hairpin); CelluSpots 15-mer library; cysteines replaced by serines; also called hairpin motive in the HER2 ECD
T3 peptide (looked up): PALVTYNTDTFESMPNPEG

[3] = molecular target: T4, HER1 (EGFR) ECD peptide hairpin, overlapping immobilized 15-mer peptides (human, UniProt P00533 265-283, limits assumed); assay: CelluSpots array of overlapping 15-mer peptides
T4 construct: domain: peptide hairpin (β-hairpin); CelluSpots 15-mer library; cysteines replaced by serines; also called hairpin motive in EGFR
T4 peptide (looked up): PPLMLYNPTTYQMDVNPEG

[4] = molecular target: T5, HER1, full length, on transfected HEK293 cells (human, UniProt P00533 25-1210); assay: IHC on HEK293 cells transiently transfected with full length HER1
T5 construct: HEK293 transiently transfected with a plasmid coding for full length HER1; also called EGFR
Method: (§1) All selected clones were tested for reactivity and specificity in IHC. […] After an additional fixation in formalin overnight the Agarose blocks were embedded in paraffin. Untransfected HEK293 cells were used as negative controls and treated accordingly to the transfected cells. After paraffin embedding 3 μm thin sections were prepared using a microtome. The sections were mounted on glass microscopy slides and dried for 2 h. All further steps of the immunohistochemical staining procedure were carried out using a Ventana Benchmark XT. The slides were dewaxed and antigen retrieval was performed by applying heat for 1 hour. For antigen retrieval the Ventana buffer CC1 was used. The antibodies were used at a concentration of 1 μg/ml. For the detection of bound antibody the Ventana UltraView detection kit was used.

[5] = molecular target: T6, HER2, full length, on cells (transfected HEK293, MCF7) (human, UniProt P04626 23-1255); assay: IHC on HEK293 cells transiently transfected with full length HER2
Method: as §1

[6] = molecular target: T7, HER4, full length, on transfected HEK293 cells (human, UniProt Q15303 26-1308); assay: IHC on HEK293 cells transiently transfected with full length HER4
Method: as §1

TtSlyDcas = molecular target: T8, TtSlyDcas; assay: ELISA, antigen coated, hybridoma supernatant
T8 construct: negative control scaffold without the HER3 β-hairpin
T8 chain: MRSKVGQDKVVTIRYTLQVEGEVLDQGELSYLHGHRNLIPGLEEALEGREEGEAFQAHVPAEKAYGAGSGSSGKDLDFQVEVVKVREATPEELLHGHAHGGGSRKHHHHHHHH
Method: (§2) For the ELISA screening an antigen down format was used. […] Hybridoma Supernatant was added to the plates and incubated for 1 h at room temperature. Bound antibody was detected with a HRP-labeled F(ab′)₂ goat anti-mouse Fcγ (Dianova) and ABTS (Roche) was used as a HRP-substrate.
(§3) As negative controls the scaffold proteins TtSlyDcas and TgSlyDΔIF were used.

TtSlyDcas-Her3 = molecular target: T9, TtSlyDcas-Her3; assay: ELISA, antigen coated, hybridoma supernatant
T9 chain: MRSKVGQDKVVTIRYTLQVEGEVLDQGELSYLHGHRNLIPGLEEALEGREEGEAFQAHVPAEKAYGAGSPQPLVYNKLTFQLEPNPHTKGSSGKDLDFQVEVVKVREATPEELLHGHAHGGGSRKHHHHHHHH
Method: as §2, §3

[7] = molecular target: human HER2 Extracellular Domain (HER2 ECD) (human, UniProt P04626 23-652); assay: ELISA, antigen coated, hybridoma supernatant
Method: as §2, §3

[8] = molecular target: T10, human HER1 Extracellular Domain (HER1 ECD) (human, UniProt P00533 25-645); assay: ELISA, antigen coated, hybridoma supernatant
T10 construct: also called EGFR ECD
Method: as §2, §3

[9] = molecular target: T11, human recombinant HER3 Extracellular Domain (HER3 ECD) (human, UniProt P21860 20-643); assay: ELISA, antigen coated, hybridoma supernatant
T11 construct: 68 kDa; also called human-Her3-ECD
Method: as §2, §3

[10] = molecular target: T12, human recombinant HER4 Extracellular Domain (HER4 ECD) (human, UniProt Q15303 26-651); assay: ELISA, antigen coated, hybridoma supernatant
T12 sequence: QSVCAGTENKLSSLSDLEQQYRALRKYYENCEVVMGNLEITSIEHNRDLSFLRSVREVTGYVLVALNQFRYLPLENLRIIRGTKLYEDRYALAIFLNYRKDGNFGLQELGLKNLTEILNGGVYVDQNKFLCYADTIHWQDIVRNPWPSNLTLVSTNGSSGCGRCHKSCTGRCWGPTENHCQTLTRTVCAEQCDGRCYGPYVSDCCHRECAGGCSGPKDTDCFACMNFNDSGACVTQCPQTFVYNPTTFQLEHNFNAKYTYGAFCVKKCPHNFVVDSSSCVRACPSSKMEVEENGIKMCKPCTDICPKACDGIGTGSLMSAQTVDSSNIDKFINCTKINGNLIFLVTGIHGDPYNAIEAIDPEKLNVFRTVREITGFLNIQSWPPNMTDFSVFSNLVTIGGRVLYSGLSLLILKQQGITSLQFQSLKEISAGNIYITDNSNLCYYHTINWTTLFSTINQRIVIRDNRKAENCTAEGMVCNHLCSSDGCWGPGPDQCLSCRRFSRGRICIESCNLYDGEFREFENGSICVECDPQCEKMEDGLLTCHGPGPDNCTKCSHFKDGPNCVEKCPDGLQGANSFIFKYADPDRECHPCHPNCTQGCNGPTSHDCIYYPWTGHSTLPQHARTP
Method: as §2, §3

TgSlyDcys-Her3 = molecular target: T13, TgSlyDcys-Her3; assay: ELISA, antigen coated, hybridoma supernatant
T13 chain: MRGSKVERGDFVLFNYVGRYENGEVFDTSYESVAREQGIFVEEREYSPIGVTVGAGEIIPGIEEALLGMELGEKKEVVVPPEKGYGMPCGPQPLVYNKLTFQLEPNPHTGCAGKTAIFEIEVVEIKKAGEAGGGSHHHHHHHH
Method: as §2, §3

TgSlyDser-Her3 = molecular target: T14, TgSlyDser-Her3; assay: ELISA, antigen coated, hybridoma supernatant
T14 chain: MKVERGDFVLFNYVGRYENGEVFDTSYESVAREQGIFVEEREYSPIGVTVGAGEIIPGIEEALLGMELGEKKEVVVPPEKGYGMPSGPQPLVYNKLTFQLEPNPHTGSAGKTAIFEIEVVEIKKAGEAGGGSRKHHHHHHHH
Method: as §2, §3

TtSlyDcys-Her3 = molecular target: T15, TtSlyDcys-Her3; assay: ELISA, antigen coated, hybridoma supernatant
T15 chain: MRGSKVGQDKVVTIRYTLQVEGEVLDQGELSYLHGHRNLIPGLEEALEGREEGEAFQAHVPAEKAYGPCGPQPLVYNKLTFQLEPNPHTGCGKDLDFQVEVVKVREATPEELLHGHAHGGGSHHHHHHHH
Method: as §2, §3

TgSlyDΔIF = molecular target: T16, TgSlyDΔIF; assay: ELISA, antigen coated, hybridoma supernatant
T16 construct: negative control scaffold without insert (Thermococcus gammatolerans SlyD); also called TgSlyDAIF
T16 chain: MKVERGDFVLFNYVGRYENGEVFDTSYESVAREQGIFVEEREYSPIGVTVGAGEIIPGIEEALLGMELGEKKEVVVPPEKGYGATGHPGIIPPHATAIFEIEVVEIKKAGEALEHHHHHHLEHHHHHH
Method: as §2, §3

[11] = molecular target: T7, HER4, full length, on transfected …; assay: IHC on fixed transfected HEK293 cells
Method: as §1

[12] = molecular target: T5, HER1, full length, on transfected …; assay: IHC on fixed transfected HEK293 cells
Method: as §1

[13] = molecular target: T6, HER2, full length, on cells …; assay: IHC on fixed transfected HEK293 cells
Method: as §1

[14] = molecular target: T11, human recombinant HER3 Extracellular …; assay: SPR Biacore T200, antibody captured, HER3-ECD as analyte, 37 C

B1: Europium-labeled Heregulin-beta (PeproTech, Cat. #100-03) (ligand)
chain: SHLVKCAEKEKTFCVNGGECFMVKDLSNPSRYLCKCPNEFTGDRCQNYVMASFYKHLGIEFMEAE
modifications: also: europium label, position not given here
notes: bought fragment; also called HRG; Human Heregulin β-1 fragment (as provided from Preprotech)
- binding result (SBP-tagged HER3-ECD): binds

B2: anti-HER3/HER4 antibody M-05-74 (antibody, V domains shown)
VH: QVQLQQSGAELAKPGASVKMSCKTSGYTLTDYWIHWVKQRPGQGLEWIGYINPYTGYTESNQKFKDKATLTADKSSNTAYIQLSSLTSEDSAVYYCARPYYYGDYWGQGTTLTVSS
VL: QIVLTQSPAIMSASPGERVTITCSASSSVSYMHWFQQKPGTSPKLLIYSTSNLASGVPARFSGSGSGTSYSLTISRMEAEDAATYYCQQRSSYPFTFGSGTKLEIK
notes: also called M-074; M-5-74
- t½ diss [1]: 18 min
- binding result [2]: no binding (tested: 1 µg/mL)
- binding result [3]: no binding (tested: 1 µg/mL)

B3: anti-HER3 antibody M-17-07 (antibody, V domains shown)
VH: EVQLQQSGTVLARPGASVKMSCKASGYSFTSYWIHWVKQRPGQGLEWIGAIYPGNSDTTYNQKFKGKAKLTAVTSASTAYMELSSLTNEDSAVYYCARTGVWTSYYFDYWGQGTTLTVSS
VL: DIQMTQSPASLSASVGETVTITCRASENIYSNLAWYQQKQGKSPQLLVYAATNLADGVPSRFSGSGSGTQFSLRINSLQPEDFGSYYCQHFYGTPFTFGTGTKLEIK
notes: mouse hybridoma clone
- binding result [4]: no binding
- binding result [5]: no binding
- binding result [6]: no binding
- OD 405 nm (TtSlyDcas): 0.022 OD
- OD 405 nm (TtSlyDcas-Her3): 1.4 OD
- OD 405 nm [7]: 0.03 OD
- binding result [7]: no binding
- OD 405 nm [8]: 0.025 OD
- binding result [8]: no binding
- OD 405 nm [9]: 3.1 OD
- OD 405 nm [10]: 0.03 OD
- binding result [10]: no binding
- OD 405 nm (TgSlyDcys-Her3): 1.62 OD
- OD 405 nm (TgSlyDser-Her3): 1.4 OD
- OD 405 nm (TtSlyDcys-Her3): 1.53 OD
- OD 405 nm (TgSlyDΔIF): 0.021 OD

B4: anti-HER3 antibody M-17-12 (antibody, V domains shown)
VH: B3 VH
VL: B3 VL
notes: mouse hybridoma clone; VH and VL stated identical to those of M-17-02
- binding result [11]: no binding (tested: 1 µg/ml)
- binding result [12]: no binding (tested: 1 µg/ml)
- binding result [13]: no binding (tested: 1 µg/ml)
- OD 405 nm (TtSlyDcas): 0.022 OD
- OD 405 nm (TtSlyDcas-Her3): 1.31 OD
- OD 405 nm [7]: 0.023 OD
- binding result [7]: no binding
- OD 405 nm [8]: 0.022 OD
- binding result [8]: no binding
- OD 405 nm [9]: 3.06 OD
- OD 405 nm [10]: 0.051 OD
- binding result [10]: no binding
- OD 405 nm (TgSlyDcys-Her3): 1.37 OD
- OD 405 nm (TgSlyDser-Her3): 1.66 OD
- OD 405 nm (TtSlyDcys-Her3): 1.53 OD
- OD 405 nm (TgSlyDΔIF): 0.022 OD

B5: anti-HER3 antibody MOR09823 (described in WO2012/22814) (antibody, V domains shown)
VH: QVQLVESGGGLVQPGGSLRLSCAASGFTFSSYAMSWVRQAPGKGLEWVSVTGAVGRTYYPDSVKGRFTISRDNSKNTLYLQMNSLRAEDTAVYYCARWGDEGFDIWGQGTLVTVSS
VL: DIQMTQSPSSLSASVGDRVTITCRASQGISNWLAWYQQKPGKAPKLLIYGASSLQSGVPSRFSGSGSGTDFTLTISSLQPEDFAVYYCQQYSSFPTTFGQGTKVEIKR
- Kd [14]: 0.3 nM
